Earlier results, collected in paper PMC11581309.

Assays:
CDH1 (Gallus gallus) = CDH1 (Gallus gallus) (UniProt P08641)
CDH1 (Mus musculus) = CDH1 (Mus musculus) (UniProt P09803)
CDH1 (Homo sapiens) = CDH1 (Homo sapiens) (UniProt P12830)
CDH2 (Gallus gallus) = CDH2 (Gallus gallus) (UniProt P10288)
CDH2 (Mus musculus) = CDH2 (Mus musculus) (UniProt P15116)
CDH2 (Homo sapiens) = CDH2 (Homo sapiens) (UniProt P19022)

Substance: CDH1 (from UniProt P08641)
- Kd (CDH1 (Gallus gallus)): 110 µM

Substance: CDH1 (from UniProt P09803)
- Kd (CDH1 (Mus musculus)): 160 µM

Substance: CDH1 (from UniProt P12830)
- Kd (CDH1 (Homo sapiens)): 217 µM

Substance: CDH2 (from UniProt P10288)
- Kd (CDH2 (Gallus gallus)): 20.4 µM

Substance: CDH2 (from UniProt P15116)
- Kd (CDH2 (Mus musculus)): 22.6 µM

Substance: CDH2 (from UniProt P19022)
- Kd (CDH2 (Homo sapiens)): 22.1 µM
